This data set has as its target VEGFR2 (vascular endothelial growth factor receptor 2), expressed from plasmid in HEK293 cells, P35968.

Chain of VEGFR2 (vascular endothelial growth factor receptor 2), expressed from plasmid in HEK293 cells, P35968 (P35968 20-1356): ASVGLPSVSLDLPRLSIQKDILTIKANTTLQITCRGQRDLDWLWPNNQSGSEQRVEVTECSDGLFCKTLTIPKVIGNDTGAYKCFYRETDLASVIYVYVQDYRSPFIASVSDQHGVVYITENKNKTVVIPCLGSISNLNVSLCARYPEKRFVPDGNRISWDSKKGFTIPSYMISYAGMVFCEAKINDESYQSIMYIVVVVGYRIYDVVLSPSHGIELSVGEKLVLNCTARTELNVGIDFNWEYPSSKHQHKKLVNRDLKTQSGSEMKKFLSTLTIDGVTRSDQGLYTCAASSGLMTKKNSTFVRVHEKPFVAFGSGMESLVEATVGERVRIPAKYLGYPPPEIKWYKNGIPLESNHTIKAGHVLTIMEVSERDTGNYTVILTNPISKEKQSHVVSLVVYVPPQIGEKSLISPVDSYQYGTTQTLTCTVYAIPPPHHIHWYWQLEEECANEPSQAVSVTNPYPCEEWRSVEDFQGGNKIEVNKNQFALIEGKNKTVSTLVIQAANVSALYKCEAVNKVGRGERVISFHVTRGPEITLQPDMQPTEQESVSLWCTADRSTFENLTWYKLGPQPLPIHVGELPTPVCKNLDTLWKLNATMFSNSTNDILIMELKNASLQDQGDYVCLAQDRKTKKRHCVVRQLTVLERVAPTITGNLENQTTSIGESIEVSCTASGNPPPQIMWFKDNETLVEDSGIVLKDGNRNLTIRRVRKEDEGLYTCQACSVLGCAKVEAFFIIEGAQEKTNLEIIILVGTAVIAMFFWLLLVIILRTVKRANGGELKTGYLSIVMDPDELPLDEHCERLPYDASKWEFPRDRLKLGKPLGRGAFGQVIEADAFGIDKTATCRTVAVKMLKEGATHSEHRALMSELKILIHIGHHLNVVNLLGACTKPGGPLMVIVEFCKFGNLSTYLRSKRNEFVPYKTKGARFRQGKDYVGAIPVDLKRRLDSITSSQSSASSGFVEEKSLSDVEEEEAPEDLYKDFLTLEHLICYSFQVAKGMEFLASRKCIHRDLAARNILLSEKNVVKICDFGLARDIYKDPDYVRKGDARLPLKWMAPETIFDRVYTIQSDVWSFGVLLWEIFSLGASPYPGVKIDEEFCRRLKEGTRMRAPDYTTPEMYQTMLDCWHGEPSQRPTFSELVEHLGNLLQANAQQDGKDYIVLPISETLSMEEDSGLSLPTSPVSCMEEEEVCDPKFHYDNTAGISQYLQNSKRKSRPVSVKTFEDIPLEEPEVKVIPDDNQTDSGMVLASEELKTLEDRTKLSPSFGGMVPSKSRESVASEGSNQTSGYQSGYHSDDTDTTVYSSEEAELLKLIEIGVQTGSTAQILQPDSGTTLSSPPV

B1: recombinant, purified TCPTP (T-cell protein tyrosine phosphatase) (protein)
chain: MPTTIEREFEELDTQRRWQPLYLEIRNESHDYPHRVAKFPENRNRNRYRDVSPYDHSRVKLQNAENDYINASLVDIEEAQRSYILTQGPLPNTCCHFWLMVWQQKTKAVVMLNRIVEKESVKCAQYWPTDDQEMLFKETGFSVKLLSEDVKSYYTVHLLQLENINSGETRTISHFHYTTWPDFGVPESPASFLNFLFKVRESGSLNPDHGPAVIHCSAGIGRSGTFSLVDTCLVLMEKGDDINIKQVLLNMRKYRMGLIQTPDQLRFSYMAIIEGAKCIKGDSSIQKRWKELSKEDLSPAFDHSPNKIMTEKYNGNRIGLEEEKLTGDRCTGLSSKMQDTMEENSESALRKRIREDRKATTAQKVQQMKQRLNENERKRKRPRLTDT
As for B1, the “in vitro dephosphorylation of VEGFR2 tyrosines 996, 1175 and 1214” value is “TCPTP showed a striking specificity to two tyrosine residues studied (Y1214 and Y996), while tyrosine 1175 was not a TCPTP target”; the “in vitro dephosphorylation of isolated VEGFR2 (immunoblot with phospho-specific VEGFR2 antibodies)” value is “purified, recombinant TCPTP was able to dephosphorylate isolated VEGFR2 in vitro”.

Source of the values: US20100160228.
